{"source": "patent US20220031857A1", "about": "(OSSIANIX, published 2022)", "binders": {"B1": {"name": "Clone 12 VNAR-Fc fusion protein (Fc fusion)", "chain": "ARVDQTPQTITKETGESLTINCVLRDSICALSSTHWYRKKSGSTNEESISKGGRYVETVNSGSKSFSLRINDLTVEDSGTYRCKVVRSGVGPCWADVYGGGTAVTVNA", "notes": "Bivalent VNAR-Fc; not shown: glycine/serine linker (GxSx)n extending the hinge; human IgG1 Fc (hinge, CH2, CH3) of pFUSE-hIgG1e3-Fc2; G236 also deleted"}, "B2": {"name": "SEQ ID NO 42 (VNAR clone displayed on phage) (VNAR)", "VNAR": "ARVDQTPRSVTKETGESLTINCVLRDASYALGSTCWYRKKSGSTNEESISKGGRYVETVNSGSKSFSLRINDLTVEDGGTYRCGVCEMQLIAVDSCDHTLDDGLCGGVYAACGDGTAVTVNA", "notes": "shark VNAR domain on M13 phage; coat-protein fusion not described"}, "B3": {"name": "SEQ ID NO 48 (VNAR clone displayed on phage) (VNAR)", "VNAR": "ARVDQTPRSVTKETGESLTINCVLRDASYELGSTCWYRKKSGSTNEESISKGGRYVETVNSGSKSFSLRINDLTVEDGGTYRCGASLQCGNCELCDREQLQCGGQRGQLAACGDGTAVTVNA", "notes": "as for B2"}, "B4": {"name": "SEQ ID NO 50 (VNAR clone displayed on phage) (VNAR)", "VNAR": "ARVDQTPRSVTKETGESLTINCVLRDASYALGSTCWYRKKSGSTNEESISKGGRYVETVNSGSKSFSLRINDLTVEDGGTYRCGVMNNVSQTWVRCDSQVMSQQCVQQSAACGDGTAVTVNA", "notes": "as for B2"}, "B5": {"name": "SEQ ID NO 45 (VNAR clone displayed on phage) (VNAR)", "VNAR": "ARVDQTPRSVTKETGESLTINCVLRDASYALGSTCWYRKKSGSTNEESISKGGRYVETVNSGSKSFSLRINDLTVEDGGTYRCGVCESSFCSLPYDCDSSSAGSVIQPFGHIVSLAACGDGTAVTVNA", "notes": "as for B2"}, "B6": {"name": "SEQ ID NO 47 (VNAR clone displayed on phage) (VNAR)", "VNAR": "ARVDQTPRSVTKETGESLTINCVLRDASYALGSTCWYRKKSGSTNEESISKGGRYVETVNSGSKSFSLRINDLTVEDGGTYRCGAAIQGFWAGRCDNLPGKCVMQVSNAAACGDGTAVTVNA", "notes": "as for B2"}, "B7": {"name": "SEQ ID NO 44 (VNAR clone displayed on phage) (VNAR)", "VNAR": "ARVDQTPRSVTKETGESLTINCVLRDASYALGSTCWYRKKSGSTNEESISKGGRYVETVNSGSKSFSLRINDLTVEDGGTYRCGVCQCWSANVWVDCDMTSTSIRMRDGSRSNARAACGDGTAVTVNA", "notes": "as for B2"}, "B8": {"name": "SEQ ID NO 43 (VNAR clone displayed on phage) (VNAR)", "VNAR": "ARVDQTPRSVTKETGESLTINCVLRDASYALGSTCWYRKKSGSTNEESISKGGRYVETVNSGSKSFSLRINDLTVEDGGTYRCGVYGGTHQGLCGCDWQLRFSLCGDGRAACGDGTAVTVNA", "notes": "as for B2"}, "B9": {"name": "SEQ ID NO 51 (VNAR clone displayed on phage) (VNAR)", "VNAR": "ARVDQTPRSVTKETGESLTINCVLRDASYALGSTCWYRKKSGSTNEESISKGGRYVETVNSGSKSFSLRINDLTVEDSGTYRCNVIQYLYLGSYFACDVYGGGTVVTVNA", "notes": "as for B2"}, "B10": {"name": "SEQ ID NO 49 (VNAR clone displayed on phage) (VNAR)", "VNAR": "ARVDQTPRSVTKETGESLTINCVLRDASYELGSTCWYRKKSGSTNEESISKGGRYVETVNSGSKSFSLRINDLTVEDGGTYRCGVISQYKSYTLWCDALYRSLGCECARAACGDGTAVTVNA", "notes": "as for B2"}, "B11": {"name": "SEQ ID NO 11 (VNAR clone displayed on phage) (VNAR)", "VNAR": "ARVDQTPQTITKETGESLTINCVLRDSNCALPSTHWYRKKSGSTNEESISKGGRYVETVNSGSKSFSLRINDLTVEDSGTYRCKVLNFFTHTCVQVQKYDVYGGGTAVTVNA", "notes": "shark VNAR domain on M13 phage; coat-protein fusion not described; also called clone 11"}, "B12": {"name": "SEQ ID NO 39 (VNAR clone displayed on phage) (VNAR)", "chain": "ARVDQTPQTITKETGESLTINCVLRDSNCALSSTLWYRTKSGSRNEESISKGGRYVETVNSGSKSFSLKINDLTVEDSGTYRCNVQGMVYDGSSFWWCDVYGDSTAVTVNA", "notes": "shark VNAR domain on M13 phage; coat-protein fusion not described; also called clone 39"}, "B13": {"name": "SEQ ID NO 12 (VNAR clone displayed on phage) (VNAR)", "VNAR": "B1 chain", "notes": "shark VNAR domain on M13 phage; coat-protein fusion not described; also called clone 12"}, "B14": {"name": "Clone 7 VNAR-Fc fusion protein (Fc fusion)", "chain": "ARVDQTPQTITKETGESLTINCVLRDSNCELSSTYWYRKKSGSTNEARISKGGRYVETVNSGSKSFSLKINDLTVEDSGTYRCNVLTTDSYDLGDVYGDGTVVTVNA", "notes": "as for B1"}, "B15": {"name": "Clone 16 VNAR-Fc fusion protein (Fc fusion)", "chain": "ARVDQTPQTITKETGESLTINCVLRDSNCALPSTYWYRKKSGSTNEESISKGGRYVETVNSGSKSFSLRINDLTVKDSGTYRCKVDLPRYLCFSQYGRWYDVYGDGTAVTVNA", "notes": "as for B1"}}, "data": [{"molecular_target": "T1, recombinant human TfR1 (transferrin receptor 1) (human, UniProt P02786 89-760)", "T1 construct": "Bought recombinant His-tagged protein; also called hTfR1", "T1 sequence (P02786 89-760 limits assumed)": "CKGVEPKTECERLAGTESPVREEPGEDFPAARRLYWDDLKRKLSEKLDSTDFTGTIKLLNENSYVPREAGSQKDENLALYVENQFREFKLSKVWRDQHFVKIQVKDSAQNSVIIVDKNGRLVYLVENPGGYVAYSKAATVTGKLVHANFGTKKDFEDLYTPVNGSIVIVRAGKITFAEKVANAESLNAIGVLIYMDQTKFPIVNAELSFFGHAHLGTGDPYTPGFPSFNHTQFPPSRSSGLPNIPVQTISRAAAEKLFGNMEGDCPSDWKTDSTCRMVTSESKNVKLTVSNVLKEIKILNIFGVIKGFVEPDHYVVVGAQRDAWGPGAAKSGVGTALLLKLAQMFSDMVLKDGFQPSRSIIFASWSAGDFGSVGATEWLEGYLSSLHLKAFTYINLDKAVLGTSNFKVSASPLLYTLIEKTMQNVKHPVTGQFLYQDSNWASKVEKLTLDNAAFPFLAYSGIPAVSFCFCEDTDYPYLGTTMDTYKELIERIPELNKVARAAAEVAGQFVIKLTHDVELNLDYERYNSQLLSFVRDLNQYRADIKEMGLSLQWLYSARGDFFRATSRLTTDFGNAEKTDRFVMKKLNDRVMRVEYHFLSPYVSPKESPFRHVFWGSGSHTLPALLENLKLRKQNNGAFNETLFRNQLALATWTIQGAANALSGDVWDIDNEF", "assay": "Octet, human TfR1 immobilised; 8D3 as first antibody, which does not bind human TfR1 (grey column); white cell", "experimental": "FIGS. 15A and 15B. Epitope binning by cross-competition binding to mouse and human TfR1. VNAR-Fc fusion proteins were tested for cross-blocking in a pairwise manner against mouse (A) and human TfR1 (B) immobilised on biosensors using the Octet platform.\nA series of biochemical parameters was examined to further characterize the panel VNAR to TfR1 obtained from in vivo phage display selections. Epitope binning experiments were performed to assess whether the VNARs could compete against each other for binding to either the mouse or human TfR1. […] Because each VNAR binds via a unique CDR3 region with a different structural topography, steric interactions could be important efficient transcytosis.", "values": [{"binder": "B1", "Octet signal as second antibody after 8D3": 0.403}]}, {"molecular_target": "T2, recombinant mouse TfR1 (transferrin receptor 1) (mouse, UniProt Q62351 89-763)", "T2 construct": "Bought recombinant His-tagged protein; also called mTfR1", "T2 sequence (Q62351 89-763 limits assumed)": "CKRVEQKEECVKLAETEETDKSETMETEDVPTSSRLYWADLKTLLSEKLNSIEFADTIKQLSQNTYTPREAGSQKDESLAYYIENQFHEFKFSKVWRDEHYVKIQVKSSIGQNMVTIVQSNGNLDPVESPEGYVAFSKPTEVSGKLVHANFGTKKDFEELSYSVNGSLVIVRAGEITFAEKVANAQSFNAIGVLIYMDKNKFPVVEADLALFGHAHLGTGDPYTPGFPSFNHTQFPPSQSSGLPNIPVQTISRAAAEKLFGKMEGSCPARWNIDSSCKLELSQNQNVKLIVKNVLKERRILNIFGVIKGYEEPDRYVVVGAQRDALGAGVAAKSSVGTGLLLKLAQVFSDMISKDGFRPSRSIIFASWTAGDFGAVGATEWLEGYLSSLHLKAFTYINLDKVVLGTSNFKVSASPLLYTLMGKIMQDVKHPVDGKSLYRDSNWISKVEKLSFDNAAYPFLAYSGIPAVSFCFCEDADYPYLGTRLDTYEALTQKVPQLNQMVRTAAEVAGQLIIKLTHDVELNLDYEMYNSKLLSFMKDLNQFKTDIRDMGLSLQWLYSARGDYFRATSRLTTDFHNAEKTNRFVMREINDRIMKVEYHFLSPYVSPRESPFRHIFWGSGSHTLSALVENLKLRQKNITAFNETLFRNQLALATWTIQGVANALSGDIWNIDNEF", "assay": "phage ELISA", "values": [{"binder": "B2", "binding result": "binds"}, {"binder": "B3", "binding result": "binds"}, {"binder": "B4", "binding result": "binds"}, {"binder": "B5", "binding result": "binds"}, {"binder": "B6", "binding result": "binds"}, {"binder": "B7", "binding result": "binds"}, {"binder": "B8", "binding result": "binds"}, {"binder": "B9", "binding result": "binds"}, {"binder": "B10", "binding result": "binds"}]}, {"molecular_target": "T1, recombinant human TfR1 (transferrin …)", "assay": "phage ELISA", "values": [{"binder": "B2", "binding result": "binds"}, {"binder": "B3", "binding result": "binds"}, {"binder": "B4", "binding result": "binds"}, {"binder": "B5", "binding result": "binds"}, {"binder": "B6", "binding result": "binds"}, {"binder": "B7", "binding result": "binds"}, {"binder": "B8", "binding result": "binds"}, {"binder": "B9", "binding result": "binds"}, {"binder": "B10", "binding result": "binds"}, {"binder": "B11", "binding result": "binds"}]}, {"molecular_target": "T3, human serum albumin (human, UniProt P02768 25-609)", "T3 construct": "Negative control protein; also called HSA", "T3 sequence (P02768 25-609 limits assumed)": "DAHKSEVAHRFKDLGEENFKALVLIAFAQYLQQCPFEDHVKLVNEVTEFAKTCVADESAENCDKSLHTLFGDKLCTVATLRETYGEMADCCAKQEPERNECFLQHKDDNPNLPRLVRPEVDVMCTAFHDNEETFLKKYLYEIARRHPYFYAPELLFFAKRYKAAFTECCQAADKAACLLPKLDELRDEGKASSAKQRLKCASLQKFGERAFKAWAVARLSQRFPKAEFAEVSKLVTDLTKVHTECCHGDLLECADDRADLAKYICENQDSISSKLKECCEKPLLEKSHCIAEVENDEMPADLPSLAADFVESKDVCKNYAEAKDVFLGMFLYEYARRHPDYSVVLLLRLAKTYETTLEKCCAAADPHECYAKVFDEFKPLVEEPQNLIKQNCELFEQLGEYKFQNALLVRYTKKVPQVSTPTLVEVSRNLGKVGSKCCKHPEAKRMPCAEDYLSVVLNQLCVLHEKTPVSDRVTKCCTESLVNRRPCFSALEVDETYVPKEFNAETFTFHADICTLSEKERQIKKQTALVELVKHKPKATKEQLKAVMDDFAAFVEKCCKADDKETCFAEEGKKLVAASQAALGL", "assay": "phage ELISA", "values": [{"binder": "B12", "binding result": "no binding"}, {"binder": "B2", "binding result": "no binding"}, {"binder": "B3", "binding result": "no binding"}, {"binder": "B4", "binding result": "no binding"}, {"binder": "B5", "binding result": "no binding"}, {"binder": "B6", "binding result": "no binding"}, {"binder": "B7", "binding result": "no binding"}, {"binder": "B8", "binding result": "no binding"}, {"binder": "B9", "binding result": "no binding"}, {"binder": "B13", "binding result": "no binding"}, {"binder": "B10", "binding result": "no binding"}, {"binder": "B11", "binding result": "no binding"}]}, {"molecular_target": "T4, recombinant mouse TfR2 (mouse, UniProt Q9JKX3 103-798, limits assumed)", "T4 construct": "Negative control protein", "T4 sequence (looked up)": "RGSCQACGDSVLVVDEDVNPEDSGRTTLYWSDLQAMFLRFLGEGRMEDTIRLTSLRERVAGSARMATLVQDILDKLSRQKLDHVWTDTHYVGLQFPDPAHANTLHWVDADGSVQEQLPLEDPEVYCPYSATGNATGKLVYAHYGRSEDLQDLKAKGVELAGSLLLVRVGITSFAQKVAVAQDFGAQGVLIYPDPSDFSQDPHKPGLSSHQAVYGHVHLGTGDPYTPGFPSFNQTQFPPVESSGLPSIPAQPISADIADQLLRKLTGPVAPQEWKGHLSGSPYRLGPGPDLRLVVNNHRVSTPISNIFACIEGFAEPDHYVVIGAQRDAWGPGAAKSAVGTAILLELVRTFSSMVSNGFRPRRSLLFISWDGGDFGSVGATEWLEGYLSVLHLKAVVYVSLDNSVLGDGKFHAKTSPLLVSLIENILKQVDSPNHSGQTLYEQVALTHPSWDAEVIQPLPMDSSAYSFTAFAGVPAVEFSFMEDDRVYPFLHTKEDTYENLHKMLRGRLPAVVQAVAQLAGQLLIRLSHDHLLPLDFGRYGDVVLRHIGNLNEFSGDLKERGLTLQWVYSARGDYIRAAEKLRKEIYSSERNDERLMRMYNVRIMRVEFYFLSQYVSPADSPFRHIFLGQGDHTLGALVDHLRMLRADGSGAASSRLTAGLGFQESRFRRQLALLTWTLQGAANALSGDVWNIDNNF", "assay": "phage ELISA", "values": [{"binder": "B12", "binding result": "no binding"}, {"binder": "B2", "binding result": "no binding"}, {"binder": "B3", "binding result": "no binding"}, {"binder": "B4", "binding result": "no binding"}, {"binder": "B5", "binding result": "no binding"}, {"binder": "B6", "binding result": "no binding"}, {"binder": "B7", "binding result": "no binding"}, {"binder": "B8", "binding result": "no binding"}, {"binder": "B9", "binding result": "no binding"}, {"binder": "B13", "binding result": "no binding"}, {"binder": "B10", "binding result": "no binding"}, {"binder": "B11", "binding result": "no binding"}]}, {"molecular_target": "T4, recombinant mouse TfR2", "assay": "ELISA with Expi293 culture medium used directly, coated mouse TfR2, anti-Fc detection", "experimental": "(§1) FIG. 6. […] The VNAR-Fc fusion proteins were transiently expressed using Expi293 expression system. VNAR-Fc constructs contained signal peptide sequence in order to be secreted. Cell growth media was used directly in ELISA. HSA and mouse TfR2 were used as negative controls for unspecific binding. A clone in position 52 represents untransfected cells. Total Fc concentration was measured with capture and detection anti-Fc antibody pair using irrelevant VNAR-Fc at known concentration for standard curve.\n(§2) The next day the plates were blocked with […] with 0.1% Tween20 (PBST) for 1 hour at room temperature. Transfected cells were spun down at 2000 rpm for 10 minutes and the collected supernatant was mixed with milk in PBST to a final 2.5% concentration and incubated for 30 minutes. 100 μl of blocked supernatant was transferred into coated plates and incubated for 1 hour. […] The plates were washed and developed with TMB detection solution before stopping the reaction with 1% HCl. Absorbance was measured at 450 nm. A VNAR-Fc at know concentration was used for standard curve to calculate VNAR-Fc expression level.", "values": [{"binder": "B14", "binding result": "no binding"}, {"binder": "B1", "binding result": "no binding"}]}, {"molecular_target": "T2, recombinant mouse TfR1 (transferrin …)", "assay": "ELISA, plate coated with 1 µg/ml recombinant mouse TfR1, purified VNAR-Fc titrated, 4-parameter fit", "experimental": "(§3) It was previously reported that affinity might play a crucial role in TfR1 mediated brain penetration. […] Affinity estimation and unspecific binding was initially assessed using ELISA for human and mouse TfR1.\nas §2", "units": {"EC50": "µM"}, "values": [{"binder": "B14", "EC50": 5.37}, {"binder": "B1", "EC50": 1.56}, {"binder": "B15", "EC50": 7.18}]}, {"molecular_target": "T1, recombinant human TfR1 (transferrin …)", "assay": "ELISA, plate coated with 1 µg/ml recombinant human TfR1, purified VNAR-Fc titrated, 4-parameter fit", "experimental": "as §3, §2", "units": {"EC50": "µM"}, "values": [{"binder": "B14", "EC50": 0.463}, {"binder": "B1", "EC50": 0.151}, {"binder": "B15", "EC50": 3.11}]}, {"molecular_target": "T3, human serum albumin", "assay": "ELISA with Expi293 culture medium used directly, coated HSA, anti-Fc detection", "experimental": "as §1, §2", "values": [{"binder": "B14", "binding result": "no binding"}, {"binder": "B1", "binding result": "no binding"}]}]}
